Experimental findings from paper PMC5102582 (eLife, 2016) are described below.

Series [1] deals with the molecule itself. Briefly: SEC; HiLoad 16/60 Superdex 200 gel filtration column, during purification of full-length p47. In general terms: SEC sorts molecules by how far they enter the pores of the column.
For series [2], the target named is T1, R95G ND1Lp97-ADP (Homo sapiens/Mus musculus (identical), UniProt P55072 1-480, R95G).
T1 construct: p97/VCP, Homo sapiens/Mus musculus (identical), residues 1-480, IBMPFD disease mutation R95G; deuterated, ILVM-13CH3 labelled; mutation found in IBMPFD patients; also called R95G mutant; not shown: His6, N-terminal, cleaved
T1 sequence (P55072 1-480 R95G): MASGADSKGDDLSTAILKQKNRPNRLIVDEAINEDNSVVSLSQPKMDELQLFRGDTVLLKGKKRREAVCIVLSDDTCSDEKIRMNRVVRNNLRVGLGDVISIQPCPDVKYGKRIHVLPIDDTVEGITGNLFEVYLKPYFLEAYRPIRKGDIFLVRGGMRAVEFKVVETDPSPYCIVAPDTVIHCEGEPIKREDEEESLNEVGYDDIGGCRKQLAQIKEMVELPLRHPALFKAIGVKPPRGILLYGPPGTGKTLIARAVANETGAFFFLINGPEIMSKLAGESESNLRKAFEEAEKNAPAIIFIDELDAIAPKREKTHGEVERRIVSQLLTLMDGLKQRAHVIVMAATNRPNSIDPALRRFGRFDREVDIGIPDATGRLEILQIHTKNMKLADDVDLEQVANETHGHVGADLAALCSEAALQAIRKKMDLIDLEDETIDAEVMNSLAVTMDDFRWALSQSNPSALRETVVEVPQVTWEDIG
Briefly: NMR titration; one point: 150 µM UBXD1-N added to 50 µM (monomer) wt or mutant ND1Lp97-ADP (3:1); methyl-TROSY HMQC CSPs; Kd from the bound fraction by the V68 shift; 50°C; 25 mM HEPES pH 7.0, 50 mM NaCl, 10 mM ADP, 5 mM TCEP, D2O. The settings on record: both partners purified.

The target of series [3] is T2, R155H ND1Lp97-ADP (Homo sapiens/Mus musculus (identical), UniProt P55072 1-480, R155H).
T2 construct: p97/VCP, Homo sapiens/Mus musculus (identical), residues 1-480, IBMPFD disease mutation R155H; deuterated, ILVM-13CH3 labelled; mutation found in IBMPFD patients; not shown: His6, N-terminal, cleaved
T2 sequence (P55072 1-480 R155H): as the sequence (P55072 1-480 R95G) above, with G95R, R155H counted along it
Described as above. The conditions noted are these: both partners purified.

Series [4] deals with T3, R155P ND1Lp97-ADP (Homo sapiens/Mus musculus (identical), UniProt P55072 1-480, R155P).
T3 construct: p97/VCP, Homo sapiens/Mus musculus (identical), residues 1-480, IBMPFD disease mutation R155P; deuterated, ILVM-13CH3 labelled; mutation found in IBMPFD patients; not shown: His6, N-terminal, cleaved
T3 sequence (P55072 1-480 R155P): as the sequence (P55072 1-480 R95G) above, with G95R, R155P counted along it
Described as above. The settings on record: both partners purified.

Series [5] addresses T4, N387H ND1Lp97-ADP (Homo sapiens/Mus musculus (identical), UniProt P55072 1-480, N387H).
T4 construct: p97/VCP, Homo sapiens/Mus musculus (identical), residues 1-480, IBMPFD disease mutation N387H; deuterated, ILVM-13CH3 labelled; mutation found in IBMPFD patients; not shown: His6, N-terminal, cleaved
The description is as above. The settings on record: both partners purified.

Series [6] has as its target T5, wt ND1Lp97-ADP (p97/VCP residues 1-480: NTD, D1 and the D1-D2 linker) (Homo sapiens/Mus musculus (identical), UniProt P55072 1-480).
T5 construct: p97/VCP, Homo sapiens/Mus musculus (identical), UniProt P55072 versus Q01853, residues 1-480; highly deuterated, ILVM-13CH3 methyl labelled; 320 kDa hexamer (6 x 53 kDa); also called p97 ND1L 1-480; NDL1p97-ADP; not shown: His6, N-terminal, cleaved
Briefly: NMR titration; methyl-TROSY 13C-1H HMQC chemical shift titration of ILVM-13CH3 wt ND1Lp97-ADP with perdeuterated UBXD1-N; global analysis of V68, L140, I175, I182; effective macroscopic Kd; 50°C; 25 mM HEPES pH 7.0, 50 mM NaCl, 10 mM ADP, 5 mM TCEP, D2O; a new sample for each ligand concentration. The conditions noted are these: both partners purified.

T4 sequence (P55072 1-480 N387H): as the sequence (P55072 1-480 R95G) above, with G95R, N387H counted along it
T5 sequence (P55072 1-480): as the sequence (P55072 1-480 R95G) above, with G95R counted along it

B1: full-length p47 (natural protein, Mus musculus, UniProt Q9CZ44 1-370, looked up)
chain: MAEERQDALREFVAVTGTEEDRARFFLESAGWDLQIALASFYEDGGDEDIVTISQATPSSVSRGTAPSDNRVTSFRDLIHDQDEEEEEEEGQRFYAGGSERSGQQIVGPPRKKSPNELVDDLFKGAKEHGAVAVERVTKSPGETSKPRPFAGGGYRLGAAPEEESAYVAGERRRHSGQDVHVVLKLWKTGFSLDNGDLRSYQDPSNAQFLESIRRGEVPAELRRLAHGGQVNLDMEDHRDEDFVKPKGAFKAFTGEGQKLGSTAPQVLNTSSPAQQAENEAKASSSILINEAEPTTNIQIRLADGGRLVQKFNHSHRISDIRLFIVDARPAMAATSFVLMTTFPNKELADENQTLKEANLLNAVIVQRLT
notes: p47 (NSFL1 cofactor p47), Mus musculus, full length; perdeuterated; eluted as a trimer on gel filtration; also called p47 trimer; not shown: His6, N-terminal, cleaved
As a reminder, the stoichiometry N is a count of units in the complex or per binding partner. With B1, the “stoichiometry N” value in series [1] stood at 3.

B2: UBXD1-N (N-terminal portion of UBXD1, residues 1-133) (domain or fragment, Mus musculus, UniProt Q99PL6 1-133, looked up)
chain: MKKFFQEIKADIKFKSAGPGQKLTDSAGEKTTKGKSPQLALRQPRQGPTDEAQMAAAAALARLEQKQPRARGPTSQDSIRNQVRKELQAEATSSNNPGAPGTNSVPEPKEEISPHLAVPGVFFICPLTGVTLR
notes: UBXD1, Mus musculus, residues 1-133 (holds H1/H2 and VIM, residues 52-63); perdeuterated; construct after Trusch et al., 2015; not shown: His6, N-terminal, cleaved
The Kd is a measure of binding affinity in units of concentration. As for B2, the Kd in series [2] is ~200 µM; in series [3], ~80 µM; in series [4], ~200 µM; in series [5] it was ~80 µM; in series [6], 22 ± 2 µM.
